Test results from US12630600B2 (MEDIMMUNE LIMITED, priority 2022, dated 2026).
Several values for one entry are separate records, joined by “and”; a condition that tells them apart may be missing. Equal values may be shown once. Read-outs that look alike come from different tables or passages of the source. Starred links: 1 amine or outer side, 2 acyl side, 3 side chain; linkers in the order of their positions; H or OH if unused. Non-standard residues stand in square brackets, D forms with d. Groups on a side chain read outwards from the residue. Primed or numbered codes have the meaning given here. No end group written: not given here. *: point of attachment. β‑dimethylArg = (S)-2-amino-5-guanidino-3,3-dimethylpentanoic acid, CC(C)(CCNC(=N)N)[C@H](N[*:1])C(=O)[*:2]; C20 diacid = O=C(O)CCCCCCCCCCCCCCCCCCC(=O)*; C18 diacid = O=C(O)CCCCCCCCCCCCCCCCC(=O)*; Dip = N[C@H](C(=O)O)C(c1ccccc1)c1ccccc1; γGlu = O=C(O)[C@H](CCC(=O)[*:2])N[*:1]; Palmitoyl = CCCCCCCCCCCCCCCC(=O)*; αMeF = C[C@](N)(Cc1ccccc1)C(=O)O; Myristoyl = CCCCCCCCCCCCCC(=O)*; (PEG)2 = polyethylene glycol 2; PEG2′ = polyethylene glycol 2; AEEA = NCCOCCOCC(=O)O; Aib = CC(C)(N)C(=O)O

Key:
wildtype (WT) mice = test: Glucose change in wildtype mice; format: in vivo, mouse; conditions: s.c., no somatostatin pretreatment
Method in brief: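 Chow-fed wildtype mice, 8-14 weeks old, n=4-8/group, fasted 2 h before peptide injection, in some studies after octreotide 10 mg/kg 30 min before dosing. Blood glucose by glucometer at −30, 0, 30, 60, 120, 180, 240 and 360 min; mice reused up to 3 times with ≥1-week washout.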

Male C57Bl/6 mice = test: Mouse acute food intake study; format: in vivo; conditions: s.c., food intake at 24 h vs vehicle
Method: Male C57Bl/6 mice obtained from Jackson Laboratories or Charles River at 8-9 weeks of age and were housed one per cage in BioDaq (Research Diets) cages. Mice were placed on Alpha Dri bedding, standard chow diet (Envigo, 2018) and given water pouches. Mice were allowed to acclimate for 1-2 weeks. Body weight was measured to ensure appropriate acclimation. After acclimation, mice were sham dosed a minimum of 2 times prior to initiation of food intake study. On study day, mice were placed in clean cage bottoms, weighed, and fasted for 6-8 hours. Mice were sorted into groups based on average 24-hour food intake data and body weight. 1-2 hours prior to lights out, mice were dosed subcutaneously with one vehicle or test peptide dissolved in an appropriate vehicle at 5 mL/kg. Mice were left undisturbed and allowed access to food and water for 48 hours. Automated food intake was monitored in the BioDaq system was monitored during this time. Discrete food intake data was exported into MS Excel from which cumulative food intake data was generated and analyzed.

GLP-1R knockout mice = test: Glucose change in GLP-1R knockout mice; format: in vivo, mouse; conditions: GLP-1R KO mice, s.c., no somatostatin pretreatment
Method: They acclimated for a minimum of ˜1-2 weeks, and mice were sorted into groups (n=4-8/group) based on body weight. On day of study, mice were fasted briefly for 2 hrs prior to study start. In some studies, mice were pre-treated with octreotide (BaChem, 10 mg/kg) at 30 minutes prior to peptide injection. Glucose was measured via glucometer at various timepoints including −30 min (prior to octreotide when used in studies), 0 min (before peptide dose), 30, 60, 120, 180, 240, and 360 minutes. Since these studies are acute in nature, mice were re-used for multiple studies (no more than 3) and always allowed at least a minimum wash-out period of 1 week.

[1] = biological target: T1, Semaglutide (synthetic construct)
T1 sequence (peptide, Aib at 2; X20=Lys[O2Oc-O2Oc-γE-C18diacid]; C-terminal acid): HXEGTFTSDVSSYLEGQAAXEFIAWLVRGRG

[2] = biological target: T1, Semaglutide (synthetic construct); remark: listed apart in the source
human glucagon receptor [3] = biological target: T2, human glucagon receptor (human, UniProt P47871); test: cell-based or functional assay
human GLP-1 receptor [4] = biological target: T3, human GLP-1 receptor (human, UniProt P43220); test: cell-based or functional assay
human glucagon receptor [5] = biological target: T2, human glucagon receptor; test: cell-based or functional assay; remark: listed apart in the source
human GLP-1 receptor [6] = biological target: T3, human GLP-1 receptor; test: cell-based or functional assay; remark: listed apart in the source
[7] = biological target: GLP-1R of the mouse (present in wildtype mice, absent in GLP-1R knockout mice) (mouse, UniProt O35659); test: cell-based or functional assay
human GLP-1 receptor [8] = biological target: human GLP-1 receptor (human, UniProt P43220); test: cell-based or functional assay; remark: listed apart in the source
human glucagon receptor [9] = biological target: human glucagon receptor (human, UniProt P47871); test: cell-based or functional assay; remark: listed apart in the source
human glucagon receptor [10] = biological target: T2, human glucagon receptor; test: cell-based or functional assay; remark: listed apart in the source
human GLP-1 receptor [11] = biological target: T3, human GLP-1 receptor; test: cell-based or functional assay; remark: listed apart in the source

H-Aib-Q-G-T-F-T-S-D-V-S-K-αMePhe-L-D-T-K-R-A-R-D-F-V-Q-W-L-L-E-Aib-G-acid [Peptide 195]
WT % glucose change 60 min (wildtype (WT) mice; 10 nmol/kg): 1.4%
WT % glucose change 60 min (wildtype (WT) mice; 30 nmol/kg): −17.0%
24 hr % Vehicle Food Intake (Male C57Bl/6 mice; dose 1 nmol/kg): 102.1%
24 hr % Vehicle Food Intake (Male C57Bl/6 mice; dose 3 nmol/kg): 84.0%
24 hr % Vehicle Food Intake (Male C57Bl/6 mice; dose 10 nmol/kg): 58.2% and 49.9%
GLP-1R KO % glucose change −60 min (GLP-1R knockout mice; 10 nmol/kg): 35.3%
GLP-1R KO % glucose change −60 min (GLP-1R knockout mice; 30 nmol/kg): 48.0%

porcine pancreatic pepsin (from UniProt P00791) (enzyme)
% intact peptide over time (min), 30 (% intact peptide at 30 min) [1]: 14

recombinant Neprilysin (from UniProt P08473) (enzyme)
% intact peptide over time, 24 hr (% intact peptide at 24 hr) [2]: 48

B1: Peptide 392 of Table 9 (peptide)
peptide: H[Aib]HGS[αMeF]TSDK([AEEA-AEEA-γGlu-C18 diacid])SK[αMeF]LDSRAAQD[αMeF]VQ[Aib]IANT-NH2
modifications: N-terminus assumed
SMILES: CC[C@H](C)[C@H](NC(=O)C(C)(C)NC(=O)[C@H](CCC(N)=O)NC(=O)[C@@H](NC(=O)[C@](C)(Cc1ccccc1)NC(=O)[C@H](CC(=O)O)NC(=O)[C@H](CCC(N)=O)NC(=O)[C@H](C)NC(=O)[C@H](C)NC(=O)[C@H](CCCNC(=N)N)NC(=O)[C@H](CO)NC(=O)[C@H](CC(=O)O)NC(=O)[C@H](CC(C)C)NC(=O)[C@](C)(Cc1ccccc1)NC(=O)[C@H](CCCCN)NC(=O)[C@H](CO)NC(=O)[C@H](CCCCNC(=O)COCCOCCNC(=O)COCCOCCNC(=O)CC[C@H](NC(=O)CCCCCCCCCCCCCCCCC(=O)O)C(=O)O)NC(=O)[C@H](CC(=O)O)NC(=O)[C@H](CO)NC(=O)[C@@H](NC(=O)[C@](C)(Cc1ccccc1)NC(=O)[C@H](CO)NC(=O)CNC(=O)[C@H](Cc1c[nH]cn1)NC(=O)C(C)(C)NC(=O)[C@@H](N)Cc1c[nH]cn1)[C@@H](C)O)C(C)C)C(=O)N[C@@H](C)C(=O)N[C@@H](CC(N)=O)C(=O)N[C@H](C(N)=O)[C@@H](C)O
hGluc-R EC50 (pM) (human glucagon receptor [3]): 6920 pM
hGLP-1R EC50 (pM) (human GLP-1 receptor [4]): 312 pM

B2: Peptide 393 of Table 9 (peptide)
peptide: H[Aib]HGS[αMeF]TSDK([AEEA-AEEA-γGlu-C18 diacid])SK[αMeF]LDSRAAQD[αMeF]VQ[Aib]IANT
modifications: not fully specified (C-terminus)
hGLP-1R EC50 (pM) (human GLP-1 receptor [4]): 0.458 pM

B3: Peptide 357 (peptide)
peptide: HXHGSXTSDVSKXLDSQAAQDFVXWIANT
modifications: Aib at 2; αMePhe at 6, 13; Lys 24 acylated K(γE-γE-(PEG)2-γE-γE-C20diacid)24; C-terminal amide
hGluc-R EC50 (pM) (human glucagon receptor [5]): 550 pM
hGLP-1R EC50 (pM) (human GLP-1 receptor [6]): 917 pM

B4: Peptide 382 (peptide)
peptide: H[Aib]HGS[αMeF]TSDVSK[αMeF]LDSR[Aib]AQDFVK([AEEA-AEEA-γGlu-γGlu-C18 diacid])SIANTGG-NH2
modifications: N-terminus assumed
SMILES: CC[C@H](C)[C@H](NC(=O)[C@H](CO)NC(=O)[C@H](CCCCNC(=O)COCCOCCNC(=O)COCCOCCNC(=O)CC[C@H](NC(=O)CC[C@H](NC(=O)CCCCCCCCCCCCCCCCC(=O)O)C(=O)O)C(=O)O)NC(=O)[C@@H](NC(=O)[C@H](Cc1ccccc1)NC(=O)[C@H](CC(=O)O)NC(=O)[C@H](CCC(N)=O)NC(=O)[C@H](C)NC(=O)C(C)(C)NC(=O)[C@H](CCCNC(=N)N)NC(=O)[C@H](CO)NC(=O)[C@H](CC(=O)O)NC(=O)[C@H](CC(C)C)NC(=O)[C@](C)(Cc1ccccc1)NC(=O)[C@H](CCCCN)NC(=O)[C@H](CO)NC(=O)[C@@H](NC(=O)[C@H](CC(=O)O)NC(=O)[C@H](CO)NC(=O)[C@@H](NC(=O)[C@](C)(Cc1ccccc1)NC(=O)[C@H](CO)NC(=O)CNC(=O)[C@H](Cc1c[nH]cn1)NC(=O)C(C)(C)NC(=O)[C@@H](N)Cc1c[nH]cn1)[C@@H](C)O)C(C)C)C(C)C)C(=O)N[C@@H](C)C(=O)N[C@@H](CC(N)=O)C(=O)N[C@H](C(=O)NCC(=O)NCC(N)=O)[C@@H](C)O
hGluc-R EC50 (pM) (human glucagon receptor [5]): 329 pM
hGLP-1R EC50 (pM) (human GLP-1 receptor [6]): 56 pM

B5: Peptide 399 (peptide)
peptide: HSQGS[αMeF]TSDVSKK([(PEG)2-(PEG)2-γGlu-γGlu-Palmitoyl])LDS[β‑dimethylArg]AAQD[αMeF]VE[Aib]LANT-NH2
WT % glucose change 120 min [7]: -45 % glucose change at 120 min, WT mice, 30 nmol/kg

B6: Peptide 379 (peptide)
peptide: H[Aib]HGS[αMeF]TSDVSK[αMeF]LDSRAAQD[αMeF]VK([AEEA-AEEA-γGlu-C18 diacid])SIANT-NH2
modifications: not fully specified
hGluc-R EC50 (pM) (human glucagon receptor [5]): 85.7 pM
hGLP-1R EC50 (pM) (human GLP-1 receptor [6]): 71.8 pM

B7: Peptide 186 (peptide)
peptide: H[Aib]QGTFTSDVSK[αMeF]LDTK([AEEA-AEEA-γGlu-C18 diacid])RAQDFVRWLLEAG-OH
hGLP-1R EC50 (pM), cAMP production (HTRF) (human GLP-1 receptor [8]): 44.9 pM
hGluc-R EC50 (pM), cAMP production (HTRF) (human glucagon receptor [9]): 101 pM

B8: Peptide 126 (peptide)
peptide: H[Aib]QGS[αMeF]TSDVSKILDSK([(PEG)2-(PEG)2-γGlu-γGlu-Myristoyl])AAQD[αMeF]VQ[Aib]IINT-NH2
WT % glucose change 120 min [7]: -46.2 % glucose change at 120 min, WT mice, 30 nmol/kg

B9: Peptide 289 (peptide)
peptide: H[Aib]HGS[αMeF]TSDVSK[αMeF]LDSRAAKD[αMeF]VQWIANT-NH2
modifications: not fully specified (residue 20); also: X13: αMePhe or Y (table)
WT % glucose change 120 min [7]: -16.1 % glucose change at 120 min, WT mice, 30 nmol/kg

B10: Peptide 384 (peptide)
peptide: H[Aib]HGS[αMeF]TSDVSK[αMeF]LDSQAAQD[αMeF]VK([AEEA-AEEA-γGlu-γGlu-C20 diacid])[Aib]IANT-NH2
hGluc-R EC50 (pM) (human glucagon receptor [5]): 1240 pM
hGLP-1R EC50 (pM) (human GLP-1 receptor [6]): 797 pM

B11: Peptide 406 of Table 10 (peptide)
peptide: H[Aib]HGS[αMeF]TSDVSKKLDSRAAQD[αMeF]VQ[Aib]IANT-NH2
modifications: not fully specified (residue 13)
hGluc-R EC50 (pM) (human glucagon receptor [10]): 7310 pM
hGLP-1R EC50 (pM) (human GLP-1 receptor [11]): 458 pM

B12: Peptide 63 (peptide)
peptide: HSQGS[αMeF]TSDVSK[Dip]LDSK([PEG2′-PEG2′-γGlu-γGlu-Myristoyl])AAQD[αMeF]VE[Aib]IINT-NH2
WT % glucose change 120 min [7]: -26.4 % glucose change at 120 min, WT mice, 10 nmol/kg
